The record followed here is publication PMC6727974 (Nature microbiology, 2018).

One may read the stoichiometry N as a count of units in the complex or per binding partner.

Test [1] addresses T1, EV-D68 capsid protein VP1 (strain STL-2014-12) (Enterovirus D68, STL-2014-12 (KM881710), strain).
T1 chain: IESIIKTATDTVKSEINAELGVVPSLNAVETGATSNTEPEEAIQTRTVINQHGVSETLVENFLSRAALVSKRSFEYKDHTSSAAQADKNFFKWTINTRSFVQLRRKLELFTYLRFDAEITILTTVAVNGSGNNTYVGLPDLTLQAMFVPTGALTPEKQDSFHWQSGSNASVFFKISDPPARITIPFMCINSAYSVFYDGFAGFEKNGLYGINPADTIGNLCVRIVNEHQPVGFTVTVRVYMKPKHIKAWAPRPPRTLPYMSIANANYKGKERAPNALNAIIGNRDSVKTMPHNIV
Description: cryo-EM structure.

Test [2] addresses EV-D68 A-particle (strain STL-2014-12) (Enterovirus D68, STL-2014-12 (KM881710), strain). The experiment in a line: cryo-EM structure.
Test [3] has as its target T2, EV-D68 capsid protein VP2 (strain STL-2014-12) (Enterovirus D68, STL-2014-12 (KM881710), strain).
T2 chain: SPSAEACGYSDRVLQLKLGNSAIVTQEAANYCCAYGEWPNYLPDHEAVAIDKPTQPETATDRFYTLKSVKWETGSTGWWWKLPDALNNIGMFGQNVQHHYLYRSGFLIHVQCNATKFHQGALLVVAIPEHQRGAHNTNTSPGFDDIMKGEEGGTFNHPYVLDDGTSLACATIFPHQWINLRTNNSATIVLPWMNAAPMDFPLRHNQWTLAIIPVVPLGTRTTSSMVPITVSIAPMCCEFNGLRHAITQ
Description: cryo-EM structure.

Test [4] addresses T3, EV-D68 capsid protein VP3 (strain STL-2014-12) (Enterovirus D68, STL-2014-12 (KM881710), strain).
T3 chain: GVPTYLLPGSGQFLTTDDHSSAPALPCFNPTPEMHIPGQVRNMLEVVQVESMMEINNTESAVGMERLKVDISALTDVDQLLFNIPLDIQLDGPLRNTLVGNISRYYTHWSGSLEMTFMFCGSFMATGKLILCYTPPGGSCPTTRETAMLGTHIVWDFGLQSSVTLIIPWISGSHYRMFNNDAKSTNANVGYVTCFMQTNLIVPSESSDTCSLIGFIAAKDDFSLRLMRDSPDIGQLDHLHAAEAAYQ
The experiment in a line: cryo-EM structure.

The target of test [5] is T4, EV-D68 procapsid (strain STL-2014-12) (Enterovirus D68, STL-2014-12 (KM881710), UniProt A0A097F8Q2;PDB, strain). Description: cryoEM with 2D classification.
The target of test [6] is T4, EV-D68 procapsid (strain STL-2014-12). The experiment in a line: ELISA. (In an ELISA, binding on a coated surface is turned into a signal by an enzyme label.)

B1: Fab 11G1 (Fab, V domains shown)
VH: QVQLQQSGAELVRPGVSVKISCKGSGYIFTDYVMHWVKQSHSKSLEWIGVISTYYGDGSYNQKFKGKATMTVDKSSSTAYMELARLTSEDSAIYYCVRGENYYGVSGTMDYWGQGTSVTVSS
VL: DIVMSQSPSSLAVSVGEKVTMSCKSSQSLLYSNNQKNYLAWYQQKPGQSPQLLIYWASTRESGVPDRFTGSESGTDFTLTISSVKAEDLAVFYCQQYYNYPWTFGGGTKLEIK
For B1, in test [1], the binding result is “binds”. The “stoichiometry N” value in test [2] came to 60 copies per particle.

B2: Fab 15C5 (Fab, V domains shown)
VH: QVQLQQSGTELAKPGASVKMSCKASGYTFTNYWMHWFKQRPGQGLEWIGYVNPNTDYTDYNHKFKDKATLTADKSSSTAYMQLSSLTSEDSAVYFCARGTFGNYASFAYWGQGTLV
VL: DIQMIQSPSSMFASLGDRVSLSCRASQDIRGNLDWYQQKPGGTIKLLIYSTSNLNSGVPSRFSGSGSGSDYSLTISSLESEDFADYYCLQRNAYPLTFGGGTKLEIK
Consider B2, for which the “stoichiometry N” value in test [2] turned out to be 60 copies per particle. Moreover, the binding result in test [3], in test [4] and in test [5] was “binds” throughout.

B3: monoclonal antibody 15C5 (antibody, V domains shown)
VH: B2 VH
VL: B2 VL
For the molecule B3, the binding result in test [6] is “binds”.
